# From the supplement of paper PMC10567573
# ± gives the standard deviation.
# Assay: protein stability index of a GFP-peptide fusion (GPS, HEK-293T) (PSI 1-6); higher = more stable
# Conditions: c terminus: a fixed tail appended
# 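Also: 24-mer peptide tiles fused after GFP, lentivirally expressed, FACS-sorted into six equal bins by GFP/DsRed ratio, decoded by Illumina sequencing, PSI is the read-weighted mean bin number.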
Sequence,protein stability index (treatment: DMSO),"protein stability index (treatment: MLN4924 1 uM, 8 h)"
GYIDPEELAEIFRASGEHVTDEEI [TNNC2],5.01 ± 0.87,4.99 ± 0.17
CDDYFFIAHRGERRGIGGIFFDDL [CPOX],2.16 ± 0.31,1.96 ± 0.45
RLFQVVGKTDDTLALLNLACMMTI [TMEM175],2.92 ± 0.53,2.65 ± 0.56
NNTGKNLELKFVSSLRRQFEFSVD [TENT5D],2.75 ± 0.42,2.75 ± 0.4
IVIADVKLVADFQRYILYWRKRFT [ZNF277],2.48 ± 0.57,2.48 ± 0.46
KLTLENFYSNLILQHEERETRQKK [STK38L],3.24 ± 0.39,3.29 ± 0.46
RIGEATKPDGTVEQIGHILVSWLP [NET1],2.68 ± 0.29,2.56 ± 0.24
DMLLEKLPQVAEEISGPLTSANKI [FLOT1],4.15 ± 0.19,4.43 ± 0.16
EFPESRKPISTKSQFLKHQQTHNI [ZNF649],3.72 ± 0.47,3.57 ± 0.5
VIAINYNEKIYELRVMETKPDKAV [UFD1],1.89 ± 0.27,2.39 ± 0.24
ESGASIEDHNENGHTPLMEAGSAG [ANKRD17],5.47 ± 0.25,5.35 ± 0.28
EYMKNLLKVGGILVMPLEEKLTKI [PCMTD2],2.73 ± 0.36,2.13 ± 0.33
TPATPEDPAPLWGPPPAQGSPGDG [EMID1],5.3 ± 0.48,5.31 ± 0.22
MAAGGRMEDGSLDITQSIEDDPLL [TMEM192],4.7 ± 0.29,4.87 ± 0.16
RKVAGMAKPNMIISVNGDVITIKS [FABP4],2.37 ± 0.66,2.43 ± 0.26
QPRIHLVRAAQLCSQHWGGMASFR [TBX6],2.38 ± 0.56,2.24 ± 0.11
AARAVRANDINYQDQIPRTLEEFV [FEM1B],3.96 ± 0.21,3.77 ± 0.32
EAFQIVLSHLLGDAGSPYLIGLIS [SPNS1],3.11 ± 0.37,2.98 ± 0.41
GKLKAPPKPCAGNQGTQITVEDLF [MLH1],,3.65 ± 0.42
NVNRLNESFRDLQLRLLQAPLQAD [SCARA5],3.3 ± 0.38,3.33 ± 0.34
CADVILVLQERVRIFAHKIYLSTS [RHOBTB2],3.01 ± 0.25,3.02 ± 0.49
STPTTPGSTAITPGTPPSYSSRTP [MAP2],4.88 ± 0.1,5.06 ± 0.15
PVYLLLELEDKDGLQSAQPTEGQG [MYBL2],3.88 ± 0.23,3.79 ± 0.058

Sequence,protein stability index (treatment: DMSO),"protein stability index (treatment: MLN4924 1 uM, 8 h)"
PGAPRGNPPKASAAPDCTPSLEAG [MYCL],5.28 ± 0.34,5.36 ± 0.17
DPGADSEKSTVVEGGEVRFNGKGK [DLX1],5.51 ± 0.22,5.58 ± 0.18
FSGRMEVLTDSEGWILIDRCGKHF [KCTD10],2.57 ± 0.28,2.77 ± 0.4
SFPEPEAAQPMTKKRKVDGLSTEA [PRAME],5.19 ± 0.3,5.16 ± 0.14
EERQAAQNECQVLKLLNHPNVIEY [NEK8],4.01 ± 0.16,4.29 ± 0.11
TKRSSRNPVFQDSWDTESSGSDSG [FAM104A],5.3 ± 0.28,5.22 ± 0.055
CRNGSSIQIAFEEVPQLPPRASIS [C2CD2L],3.03 ± 0.34,2.98 ± 0.16
LRIPEGPIDQGPAIGRVRVLEEQL [FUT8],3.69 ± 0.37,3.85 ± 0.19
PWERAMGVDPQQKMELGIDLLAYG [MYOZ1],2.97 ± 0.28,2.94 ± 0.13
FGNRIKVLRSRIRFIHLVTGCVLG [POMT2],2.57 ± 0.38,2.23 ± 0.45
PATALGTASYPSDGCGADGLRSRV [NOL4L],4.39 ± 0.27,4.55 ± 0.26
RHCDDDGRTENGALAPKQELPSAL [ZNF24],5.25 ± 0.22,5.15 ± 0.21
GHDKCVSWMCTRSGNMLGRHFFTS [WDFY1],2.35 ± 0.36,2.35 ± 0.18
YPSLYYPEMYILKGGYKEFFPQHP [CDC25B],1.78 ± 0.2,2.12 ± 0.43
HTDIKPENILMCVDDAYVRRMAAE [SRPK2],4 ± 0.22,4.07 ± 0.27
SAWKTVACGGTRDQLFMQEKARQL [MYBL2],3.21 ± 0.33,3.33 ± 0.28
VQIKTWFQNRRMKHKRQMQDPQLH [VENTX],2.55 ± 0.4,2.52 ± 0.34
EGGKLPPPPPPSYDPDYIQCPYCQ [ZC2HC1A],4.03 ± 0.3,4.45 ± 0.27
LTVLPKLQARERGEEQVELSTIEE [C2CD2L],5.14 ± 0.17,4.96 ± 0.54
GEGLRIYWGSPEEQSLLSRWNPWS [TPRG1],2.28 ± 0.2,1.9 ± 0.35
LSNLTHVLYPVPLESYEDIHGTLH [PRAME],2.5 ± 0.3,2.69 ± 0.27
PVCRKTSRYRSLRPNRQLGSMVEI [TRIM39],2.61 ± 0.15,2.83 ± 0.089
